Data as given in the supplement of paper PMC9170038.

Tested on: MS2 coat protein
Assay: apparent KD of MS2 coat protein; designed switch direction (-1 OFF switch, 1 ON switch): -1; higher = weaker reporter binding
Outline: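 Each step of the titration lasted 0.8–1.5 h at the lowest concentration and 10–20 min at the highest. The protein, SNAP-549-labelled MS2 coat protein, went from 0.7 or 1.5 nM doubling to 3 µM over RNA switches transcribed on Illumina chips by stalled E. coli RNA polymerase. Normalised cluster fluorescence was curve-fitted, and the per-design median over clusters is given as apparent KD.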

[1] = input ligand: microRNA oligo, concentration not stated
[2] = Eterna round: R95, input ligand: FMN 200 uM
[3] = Eterna round: R95, input ligand: microRNA oligo, concentration not stated
[4] = Eterna round: R95, input ligand: none

Row | Sequence | apparent KD of MS2 coat protein (input ligand: FMN 200 uM) | apparent KD of MS2 coat protein (input ligand: none) | apparent KD of MS2 coat protein [1] | apparent KD of MS2 coat protein [2] | apparent KD of MS2 coat protein [3] | apparent KD of MS2 coat protein [4]
1 | AACUGGACAGGAUAUGUACUUGAGCACUUGAGGAUCACCCAAGUCAUCAAGUACUCAGGCACAGAAGGGUUUAUUU [jl-ex5.4.69 ViennaUCT mod] (Eterna round: R97, puzzle: Exclusion 5) | 311 nM | 200 nM |  |  |  | 
2 | UGUCUACAUGAGGAUCACCCAUGUCAGGAUAUGCUCGAUAUAUGGAAACAUAUAUCGAGCAGAAGGGACUAGCG [Jieuxxlusion 5 - Jieux - Exclusion 1] (Eterna round: R97, puzzle: Exclusion 1) | 53.5 nM | 28.4 nM |  |  |  | 
3 | GUGGGACAUGAGGAUCACCCAUGUCAGGAUAUUUGGGCGAGAUUCGAUCUCGUUAGCCGGAGAAGGGACGUAUG [Eternabot (L2) Solution 47] (Eterna round: R97, puzzle: Exclusion 1) | 34.7 nM | 25 nM |  |  |  | 
4 | AUCGUGCAGCUUUGCUGUACGAGUACAUGAGGAUCACCCAUGUAGGAUAUGGUACGCUUUGCGUGCUAGAAGGAUAUGCGUUUG [EX ENG3 1.45] (Eterna round: R96, puzzle: Exclusion NG 3) | 46.7 nM | 41.3 nM | 40 nM |  |  | 
5 | CGCGACUCAGGAUAUACAUGAGGAUCACCCAUGUGGAACUACUGGGUCGAUAAAAGGUGUAGAAGGGAGGAAAU [Veveesla] (puzzle: Exclusion 3) |  |  |  | 14.3 nM | 10.5 nM | 13.5 nM
6 | GAUGAGGUAGGAUAUACGAUAAUAUAGGGUAGAUAUAUAACACAUGAGGAUCACCCAUGUAGAAGGACCAGUAG [Mat - Exclusion 2 - Mod of my Tesla design - D66] (puzzle: Exclusion 2) |  |  |  |  | 33.4 nM | 
7 | AGUACUAUGCGAGCUGACUUGCGUAGUGCAGCAGGUGUUACAUGAGGAUCACCCAUGUCCUCAUUUGCUCGUCUUAA [Mat - Sensor v3 - Turn-off var 2 - D7] (puzzle: Sensor v3, turn-off variant 2) |  |  |  | 267 nM | 91.8 nM | 293 nM
8 | ACGUUAGGAGGAUAUAGAAUUUUAGACAUGAGGAUCACCCAUGUCCUAUGUCAUGAGAGGCUAGAAGGCCUAGUUU [Eternabot (L2) Solution 51] (Eterna round: R97, puzzle: Exclusion 5) | 142 nM | 29.4 nM |  |  |  | 
9 | AAGAAACAUGAGGAUCACCCAUGUGAGGAUAUGAUUAAGAAAAGAAAAGAAAGAAGAAUCAGAAGGCACAAAGG [salish99-ex1_r3_042] (puzzle: Exclusion 1) |  |  |  | 258 nM | 98.7 nM | 108 nM
10 | UGUUUACAUGAGGAUCACCCAUGUCAGGAUAUGAUCGAUAUAUGGAAACAUAUAUCGAUCAGAAGGGACUAGUG [Jieuxxlusion 2 - Jieux - Exclusion 1] (Eterna round: R97, puzzle: Exclusion 1) | 88.2 nM | 82.6 nM |  |  |  | 
11 | UAUAUUGGAGGAUAUCUCUCAGUGAACAUGAGGAUCACCCAUGUUGGUGAACGACGGCACAGAGAAGGUCAACGCA [Eternabot (L2) Solution 61] (Eterna round: R97, puzzle: Exclusion 5) | 314 nM | 499 nM |  |  |  | 
12 | UAUUUGUGAGGAUAUGAGUCGUAGAACAAUAGUACUACGUCUCAGAAGGUACAUGAGGAUCACCCAUGUUCCUC [Fiskers Ex 4 Super Stable 44 mod 31] (puzzle: Exclusion 4) |  |  |  |  | 18.4 nM | 
13 | AGUGGUAGUAUCCGAUCCUACAUGAGGAUCACCCAUGUAGCUAGACGUGCACGCGAUGCUCGUCAGACUACCAGAUG [salish99_TOv1_r3_040] (puzzle: Sensor v3, turn-off variant 1) |  |  |  | 16.5 nM | 14.1 nM | 18.1 nM
14 | AUAAAACGUGUAGGAUAUGCGUGGCGAAGCUAUGCAGAAGGACAUGAGGAUCACCCAUGUUCAAGCGUCUGCGUACAGAUGCUA [JL eng1 1.35 mod 6] (Eterna round: R96, puzzle: Exclusion NG 1) | 16.9 nM | 14.5 nM | 14.1 nM |  |  | 
15 | CAGUACUGAGGAUAUACAUGAGGAUCACCCAUGUGUGUGAGAUUUGGAUGAAAGUUAUGUAGAAGGCGGUGCUG [JR_Ex3_Sub037] (Eterna round: R97, puzzle: Exclusion 3) | 68.4 nM | 73.8 nM |  |  |  | 
16 | GCCGGCUGAGGAUAUACAUGAGGAUCACCCAUGUGCUUCAGCCGGGAGACCGGCAUUGGUAGAAGGCAGCCGGC [Mod of lroppy 21 - Jieux - Exclusion 3] (Eterna round: R97, puzzle: Exclusion 3) | 14.5 nM | 14.7 nM |  |  |  | 
17 | CGGAUGUGAGGAUAUACAUGAGGAUCACCCAUGUGUGCCAGCUAGCUGACUGGCACUUGUAGAAGGCACGUCUG [JL-ex3-2.14 Brourd mod] (puzzle: Exclusion 3) |  |  |  |  | 11.1 nM | 
18 | GCGAAAGCAAGCAAGUGAAACAUGAGGAUCACCCAUGUCCUCAUUUGCUCGUCUUGUAAGCUAUGCGAAAGCAUAGC [Sensor 3, v1 - 5] (puzzle: Sensor v3, turn-off variant 1) |  |  |  | 12.1 nM | 53.3 nM | 11.9 nM
19 | UUUAAUUUUUUUUUUUUACAAGCUUUUUGCUCGUCUUAUACAUGAGGAUCACCCAUGUGAAUGAGGGAUAAAUUAUC [JMF 39] (puzzle: Sensor v3, turn-off variant 2) |  |  |  | 13.5 nM | 14.3 nM | 11.9 nM
20 | ACAAGCUUUGUUGUGGGUGACAUGAGGAUCACCCAUGUUUGCCACGUCUUGUGGGCCCGGGCCCGCGGCCCGGGCCC [-42.9, -63.9, A 13%] (Eterna round: R97, puzzle: Sensor, turn-off variant 1) | 50.3 nM | 55.1 nM |  |  |  | 
21 | UCGCUGCGAGGAUAUACGUGCGCGCGCGCGCGCGCGCGCGUACAUGAGGAUCACCCAUGUAGAAGGCGCGCUGC [Apr-15 SS2-1] (puzzle: Exclusion 2) |  |  |  |  | 12.5 nM | 
22 | CUGAUGUUAGGAUAUCAGGUCACGCGCGAAGGCGCGCGGCAUGAGAAGGAACAUGAGGAUCACCCAUGUGACGA [Reisquso] (Eterna round: R96, puzzle: Exclusion 4) | 305 nM | 43.3 nM | 29.6 nM |  |  | 
23 | UCCUCACAUGAGGAUCACCCAUGUUAGGAUAUCUUAGAGCGCGAAUGACAGUUCUUUAAGAGAAGGAACUGGGC [Exclusion 1 (MOD1.2 of Edarti)] (Eterna round: R97, puzzle: Exclusion 1) | 50.5 nM | 20.1 nM |  |  |  | 
24 | UGAUGACAUGAGGAUCACCCAUGUCAGGAUAUUGAAGUUGAAGUGAAAGCUUCGGCUUCGAGAAGGGACUGUCG [-29.3, -26.3 kcal, A 28% sequence 3] (Eterna round: R97, puzzle: Exclusion 1) | 29.5 nM | 25 nM |  |  |  | 
25 | UGUUCGGUAGGAUAUACAUCGCUGAAGUGGCGGUGACUUCAACAUGAGGAUCACCCAUGUAGAAGGGCCGGCUC [EX2 C.4] (Eterna round: R97, puzzle: Exclusion 2) | 17.3 nM | 16.5 nM |  |  |  | 
